The assay addresses T1, human IL-22 receptor complex IL22R1 and IL10R2 (human) (UniProt Q8N6P7).
T1 sequence (looked up) 1: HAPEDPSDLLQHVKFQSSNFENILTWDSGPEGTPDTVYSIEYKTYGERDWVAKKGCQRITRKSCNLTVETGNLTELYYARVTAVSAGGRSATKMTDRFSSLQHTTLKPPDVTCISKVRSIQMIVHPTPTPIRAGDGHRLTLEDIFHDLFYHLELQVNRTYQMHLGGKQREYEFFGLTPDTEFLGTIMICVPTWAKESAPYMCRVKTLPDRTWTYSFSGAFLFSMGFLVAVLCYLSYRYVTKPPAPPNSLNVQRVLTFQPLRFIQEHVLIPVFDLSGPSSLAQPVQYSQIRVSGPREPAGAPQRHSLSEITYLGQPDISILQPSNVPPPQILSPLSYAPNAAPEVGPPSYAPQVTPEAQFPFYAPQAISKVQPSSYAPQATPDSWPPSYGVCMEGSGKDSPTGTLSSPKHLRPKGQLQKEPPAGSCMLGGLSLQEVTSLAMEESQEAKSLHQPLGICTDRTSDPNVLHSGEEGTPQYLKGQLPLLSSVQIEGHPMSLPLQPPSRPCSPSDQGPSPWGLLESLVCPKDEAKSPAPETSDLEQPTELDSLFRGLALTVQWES
T1 sequence (looked up) 2: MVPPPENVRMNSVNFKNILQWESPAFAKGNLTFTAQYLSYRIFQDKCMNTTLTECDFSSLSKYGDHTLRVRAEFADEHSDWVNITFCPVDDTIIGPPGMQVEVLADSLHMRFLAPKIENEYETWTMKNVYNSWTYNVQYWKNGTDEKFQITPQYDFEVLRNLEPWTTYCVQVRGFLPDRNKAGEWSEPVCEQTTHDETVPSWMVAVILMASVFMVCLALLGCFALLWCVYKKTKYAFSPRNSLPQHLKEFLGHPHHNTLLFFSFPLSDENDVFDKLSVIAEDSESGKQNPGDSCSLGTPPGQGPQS
Nature of the assay: cell-based or functional assay.

The results in this text go back to patent US20140314711A1.

B1: IL-22 Fc construct 13 (huIgG1, linker …) (Fc fusion, not shown: a dimerising Fc or GST)
chain: APISSHCRLDKSNFQQPYITNRTFMLAKEASLADNNTDVRLIGEKLFHGVSMSERCYLMKQVLNFTLEEVLFPQSDRFQPYMQEVVPFLARLSNRLSTCHIEGDDLHIQRNVQKLKDTVKKLGESGEIKAIGELDLLFMSLRNACIKVDKKVEPKSSDKTHTCPPCP
Molecule B1 had an EC50 (STAT3 luciferase reporter assay) of 0.025 nM.

B2: IL-22 Fc construct 24 (huIgG1, linker …, produced in E. coli) (Fc fusion, not shown: a dimerising Fc or GST)
chain: APISSHCRLDKSNFQQPYITNRTFMLAKEASLADNNTDVRLIGEKLFHGVSMSERCYLMKQVLNFTLEEVLFPQSDRFQPYMQEVVPFLARLSNRLSTCHIEGDDLHIQRNVQKLKDTVKKLGESGEIKAIGELDLLFMSLRNACIEPKSSDKTHTCPPCP
For the molecule B2, the EC50 (STAT3 luciferase reporter assay) was found to be 0.016 nM.

B3: IL-22 Fc construct 12 (huIgG1, linker …) (Fc fusion, not shown: a dimerising Fc or GST)
chain: APISSHCRLDKSNFQQPYITNRTFMLAKEASLADNNTDVRLIGEKLFHGVSMSERCYLMKQVLNFTLEEVLFPQSDRFQPYMQEVVPFLARLSNRLSTCHIEGDDLHIQRNVQKLKDTVKKLGESGEIKAIGELDLLFMSLRNACIDKKVEPKSSDKTHTCPPCP
Take B3: the EC50 (STAT3 luciferase reporter assay) was 0.025 nM.

B4: IL-22 Fc construct 18 (huIgG1, linker …, N297G) (Fc fusion, not shown: a dimerising Fc or GST)
chain: APISSHCRLDKSNFQQPYITNRTFMLAKEASLADNNTDVRLIGEKLFHGVSMSERCYLMKQVLNFTLEEVLFPQSDRFQPYMQEVVPFLARLSNRLSTCHIEGDDLHIQRNVQKLKDTVKKLGESGEIKAIGELDLLFMSLRNACIKKVEPKSSDKTHTCPPCP
In the case of B4, the EC50 (STAT3 luciferase reporter assay) stood at 0.02 nM.
